{
  "source": "patent US12559740B2",
  "about": "“Process for the direct enzymatic conversion of amino sugars; enzyme and compositions for use in the process” (GLYCOMICS AND GLYCAN BIOENGINEERING RESEARCH CENTER …, priority 2021, dated 2026)",
  "system": "N[C@H]1C(O)O[C@H](CO)[C@@H](O)[C@@H]1O",
  "experiment": "Kinetic analysis of Ef-GPDA with glucosamine (conversion of glucosamine to fructose, photometric at 505 nm after resorcinol derivatization)",
  "assay_type": "biochemical, Enterococcus faecalis",
  "details": "other: substrate glucosamine (3 to 140 mM solutions, 30 μL), MES buffer pH 7.0, MgCl2, 40° C., 10 h",
  "method": "Reaction mixtures (50 μL) were centrifuged at 12000 g for 10 min at room temperature, and 40 μL samples of the supernatant were taken and mixed with 35 μL conc. HCl and 5 μL of resorcinol-thiourea reagent (consisting of 0.1% (w/V) resorcinol and 0.25% (w/V) in glacial acetic acid). The mixed samples were incubated at 80° C. for 10 min and then centrifuged at 12000 g for 10 min at room temperature. The supernatants (50 μL) were then transferred to 96 microplate and the absorbance at λ=505 nm measured with a microplate photometer (Thermo Multiskan).\nGenes encoding the wild-type or mutant variants of GDPA were synthesized in an E. coli codon-optimized form (Genscript) and delivered in a pUC19 vector with ampicillin resistance. The protein-encoding insert was cut via Ndel and Xhol restriction enzymes (Takara) and ligated in a pET30a expression vector via T4 Ligase (Takara). The GPDA enzymes were prepared as follows: a fresh single colony from an LB agar plate supplemented with […] Kanamycin and used to grow E. coli strain BL21 comprising the respective plasmid was used to inoculate 5 mL of LB liquid medium with the same concentration of Kanamycin. Following incubation of said culture over night at 120 rpm and 37° C. 2 mL of the overnight culture was used to inoculate 400 mL of the same medium in a 2 L flask. […]",
  "data": [
    {"substance": "Ef-GPDA, glucosamine-6-phosphate deaminase from Enterococcus faecalis, wild type, SEQ ID NO: 1 (Enterococcus faecalis V583)", "values": [
      {"measurement": "Km", "value": "21.8 ± 2.3", "unit": "mM"},
      {"measurement": "Vmax", "value": "4.0 ± 0.2", "unit": "µmol/min"}
    ]}
  ]
}
